Positions count from the first letter of the chain named. Names and notes keep the numbering of the source. Where two headings read alike, the source gives them in different places.

The values below come from patent US20180194839A1 (Novartis, published 2018).

Experiment in all cases: SPR (Biacore), captured antibody, antigen as analyte
(Surface plasmon resonance follows binding to a sensor surface in real time, without labels.)

Assay [1] has as its target T1, recombinant human IL-17A (SEQ ID NO: 78) (human, UniProt Q16552 24-155, limits assumed).
T1 construct: homodimer; also called huIL-17A; hulL-17A
T1 sequence: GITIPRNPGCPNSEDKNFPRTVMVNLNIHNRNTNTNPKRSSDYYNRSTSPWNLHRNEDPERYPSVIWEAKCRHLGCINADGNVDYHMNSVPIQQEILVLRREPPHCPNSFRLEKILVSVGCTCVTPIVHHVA

Assay [2] addresses T2, recombinant human IL-17A/F heterodimer (human, UniProt Q16552 24-155; Q96PD4 31-163, limits assumed).
T2 construct: heterodimer of an IL-17A subunit and an IL-17F subunit; also called huIL-17A/F; rhuIL-17A/F
T2 sequence (looked up) 1: T1 sequence
T2 sequence (looked up) 2: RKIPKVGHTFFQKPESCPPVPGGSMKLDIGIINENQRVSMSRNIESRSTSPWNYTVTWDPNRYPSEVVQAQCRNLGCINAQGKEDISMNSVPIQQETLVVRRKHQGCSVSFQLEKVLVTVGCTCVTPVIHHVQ

For assay [3], the target named is T3, recombinant cynomolgus IL-17A (SEQ ID NO: 79) (cynomolgus monkey, UniProt Q16552 24-155 (human entry), limits assumed).
T3 construct: also called cynoIL-17A; cyno IL-17A
T3 chain: T1 sequence with T3A, P8S, N34S, I77V, N78K, P104R

The target in assay [4] is T4, marmoset IL-17A (SEQ ID NO: 82) (marmoset monkey).
T4 construct: also called marmIL-17A
T4 chain: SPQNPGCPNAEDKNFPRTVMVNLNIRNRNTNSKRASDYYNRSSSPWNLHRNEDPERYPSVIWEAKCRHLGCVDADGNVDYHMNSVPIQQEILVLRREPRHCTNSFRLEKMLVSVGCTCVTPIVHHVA

Assay [5] addresses T5, recombinant mouse IL-17A (SEQ ID NO: 83) (mouse, UniProt Q62386 26-158).
T5 construct: also called mIL-17A; rmIL-17A
T5 sequence: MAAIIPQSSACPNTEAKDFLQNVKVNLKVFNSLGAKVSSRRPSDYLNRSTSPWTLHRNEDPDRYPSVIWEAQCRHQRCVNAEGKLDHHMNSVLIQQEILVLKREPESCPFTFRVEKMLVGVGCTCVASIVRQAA

The target of assay [6] is T6, recombinant mouse IL-17A/F (R&D Systems Cat#5390-IL) (mouse, UniProt Q62386 26-158; Q7TNI7 29-161, limits assumed).
T6 construct: bought heterodimer; also called mIL-17A/F; rmIL-17A/F
T6 sequence (looked up) 1: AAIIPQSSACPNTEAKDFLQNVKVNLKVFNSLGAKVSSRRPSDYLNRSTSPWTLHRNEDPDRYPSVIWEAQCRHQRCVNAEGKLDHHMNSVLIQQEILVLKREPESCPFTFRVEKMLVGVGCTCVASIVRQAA
T6 sequence (looked up) 2: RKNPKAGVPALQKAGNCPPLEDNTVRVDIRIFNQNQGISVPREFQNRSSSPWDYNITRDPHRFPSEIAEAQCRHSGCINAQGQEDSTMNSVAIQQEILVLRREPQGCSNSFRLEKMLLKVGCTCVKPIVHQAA

Assay [7] addresses T7, recombinant rat IL-17A (SEQ ID NO: 85) (rat, UniProt Q61453 18-150).
T7 construct: also called rratIL-17A; rIL-17A
T7 sequence: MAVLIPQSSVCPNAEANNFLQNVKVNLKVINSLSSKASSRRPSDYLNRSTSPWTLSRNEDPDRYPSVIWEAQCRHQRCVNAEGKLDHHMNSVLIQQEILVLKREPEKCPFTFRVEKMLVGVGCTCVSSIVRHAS

Assay [8] addresses T1, recombinant human IL-17A (SEQ ID NO: 78). This is another data set of the same source.
Assay [9] deals with T2, recombinant human IL-17A/F heterodimer. The source holds these as a separate data set.
In assay [10] the target is T3, recombinant cynomolgus IL-17A (SEQ ID …).
Assay [11] addresses T5, recombinant mouse IL-17A (SEQ ID NO: 83). This is another data set of the same source.
Assay [12] deals with T6, recombinant mouse IL-17A/F (R&D Systems …). The source holds these as a separate data set.
Assay [13] deals with T7, recombinant rat IL-17A (SEQ ID NO: 85). The source holds these as a separate data set.

B1: XAB4 (antibody, human IgG1, kappa, V domains shown)
VH: EVQLVESGGDLVQPGGSLRLSCAASGFTFSSYWMSWVRQAPGKGLEWVANIKQDGSEKYYVDSVKGRFTISRDNAKNSLYLQMNSLRAEDTAVYYCARDRGSLYYWGQGTLVTVSS
VL: AIQLTQSPSSLSASVGDRVTITCRPSQGINWELAWYQQKPGKAPKLLIYDASSLEQGVPSRFSGSGSGTDFTLTISSLQPEDFATYYCQQFNSYPLTFGGGTKVEIKR
notes: also called MB435 N56Q
Broadly, the Kd is the concentration at which binding is half-saturated. As to B1, the Kd is 0.0057 nM in [1]; < 0.011 nM in [2]; 0.031 nM in assay [3]; 0.018 nM in [4]; 0.16 nM in assay [5]; 0.26 nM in [6]. Also, the Kd in [7] came to 0.084 nM.

B2: XAB1 (antibody, human IgG1, kappa, V domains shown)
VH: B1 VH
VL: B1 VL with N30I, W31S, E32A, Q56N
notes: human IgG1/kappa monoclonal antibody; also called parental XAB1; XAB1 IgG
In general, koff refers to a measure of how fast the partners let go of each other. Turning to B2, the Kd in [8] turned out to be 0.0403 nM; in assay [9] it was 1.48 nM; in assay [10] it was 0.526 nM; in [11], 0.353 nM; in assay [12] it was 5.09 nM; in assay [13] it was 0.301 nM. In addition, the koff in assay [8] worked out at 9.39e-05 s⁻¹; in assay [9], 0.00134 s⁻¹; in assay [10], 0.000113 s⁻¹; in [11], 0.000143 s⁻¹; in assay [12] it was 0.000955 s⁻¹; in assay [13], 0.000164 s⁻¹.
